This note sets out measurements from patent publication US20050048527, “Endonuclease-substrate complexes” (Third Wave Technologies, Inc., published 2005).

Where a chain is given by its changes, count along the chain named.

Common to all, as to test: cleavage_in_vitro; rate vs Pfu FEN1
One data set addresses T1, Pho3M FEN1 (Pyrococcus horikoshii, UniProt O50123 SEQ:1-343).
T1 chain: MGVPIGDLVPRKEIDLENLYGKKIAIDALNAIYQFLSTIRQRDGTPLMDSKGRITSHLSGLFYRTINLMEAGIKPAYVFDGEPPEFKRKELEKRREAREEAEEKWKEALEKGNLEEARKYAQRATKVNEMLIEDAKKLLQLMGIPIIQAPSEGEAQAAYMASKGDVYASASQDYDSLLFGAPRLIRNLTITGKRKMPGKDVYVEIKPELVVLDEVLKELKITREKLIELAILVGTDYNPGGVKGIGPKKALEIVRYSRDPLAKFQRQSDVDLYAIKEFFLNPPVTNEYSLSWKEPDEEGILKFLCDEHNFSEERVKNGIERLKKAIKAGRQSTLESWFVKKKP
The procedure:
(§1) For the evaluation of chimeric enzymes, standard tests were performed to measure the performance and specificity of the enzymes. […] 10 μl reactions are run at 59 C for between 5 to 60 minutes depending on the enzyme. Reactions are stopped by the addition of 10 μl of 95% formamide, 0.02% methyl violet. 1 μl of the mixture is run on a denaturing 20% acrylamide gel and electrophoresed for 15 minutes or until good separation is achieved between cleaved and uncleaved probe. The gels are scanned using an FMBIO fluorescent gel scanner and the bands are quantified with FMBIOAnalysis software. Cleavage rates are determined from the percent probe cleaved. Cleavage rate for the INVADER substrate is defined as the number of probe molecules cleaved per target molecule per minute. In Table 5, below, the cleavage rates for the mutant enzymes are compared to the cleavage rates for unmodified Pfu FEN1 enzyme on the INVADER assay and X-structure substrates.
(§2) The X-structure substrate is used to determine the amount of background cleavage an enzyme will carry out in an INVADER reaction. It mimics the structure created by uncut primary probe and secondary FRET cassette in the INVADER squared reaction. […] 10 μl reactions are run at 59 C for between 3 to 30 minutes depending on the enzyme. Reactions are stopped by the addition of 10 μl of 95% formamide, 0.02% methyl violet. 1 μl of the mixture is run on a denaturing 20% acrylamide gel and electophoresed for 15 minutes or until good separation is achieved between cleaved and uncleaved probe. The gels are scanned using an FMBIO fluorescent gel scanner and the bands are quantified with FMBIOAnalysis software. Cleavage rates are determined from the percent probe cleaved.

A further data set concerns the target T2, Pfu1M FEN1 (Pyrococcus furiosus, UniProt O93634 SEQ:1-340).
T2 chain: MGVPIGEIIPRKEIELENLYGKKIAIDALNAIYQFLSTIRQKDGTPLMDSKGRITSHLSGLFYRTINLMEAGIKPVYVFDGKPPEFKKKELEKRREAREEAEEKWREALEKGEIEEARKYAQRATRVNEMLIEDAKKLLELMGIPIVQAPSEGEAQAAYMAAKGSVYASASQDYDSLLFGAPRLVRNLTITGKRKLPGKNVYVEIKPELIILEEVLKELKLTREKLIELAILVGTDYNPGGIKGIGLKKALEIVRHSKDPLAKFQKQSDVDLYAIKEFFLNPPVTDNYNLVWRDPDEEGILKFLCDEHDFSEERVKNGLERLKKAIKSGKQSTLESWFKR
The procedure:
as §1, §2

The next data set has as its target T3, Pho1M FEN1 (Pyrococcus horikoshii, UniProt O50123 SEQ:1-343).
T3 chain: T1 chain with E103L, E110A
The procedure: as §1, §2

Another data set addresses T4, Pfu4M FEN1 (Pyrococcus furiosus, UniProt O93634 SEQ:1-340).
T4 chain: T2 chain with E103L, E110A, E113N
The procedure: as §1, §2

Another data set concerns the target T5, Afu FEN1 (Archaeoglobus fulgidus, UniProt O29975 SEQ:1-336).
T5 sequence: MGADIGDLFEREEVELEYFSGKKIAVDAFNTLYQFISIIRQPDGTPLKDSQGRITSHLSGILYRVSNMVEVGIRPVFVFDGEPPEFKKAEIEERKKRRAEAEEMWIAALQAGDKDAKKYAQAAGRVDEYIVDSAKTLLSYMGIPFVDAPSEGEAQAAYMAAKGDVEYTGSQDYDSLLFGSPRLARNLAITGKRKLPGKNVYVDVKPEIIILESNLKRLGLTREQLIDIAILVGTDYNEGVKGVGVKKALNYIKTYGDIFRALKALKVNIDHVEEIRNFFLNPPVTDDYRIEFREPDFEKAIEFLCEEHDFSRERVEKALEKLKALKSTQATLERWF
The protocol: as §1, §2

Another data set has as its target T6, Mja FEN1 (Methanococcus jannaschii, UniProt Q58839 SEQ:1-326).
T6 sequence: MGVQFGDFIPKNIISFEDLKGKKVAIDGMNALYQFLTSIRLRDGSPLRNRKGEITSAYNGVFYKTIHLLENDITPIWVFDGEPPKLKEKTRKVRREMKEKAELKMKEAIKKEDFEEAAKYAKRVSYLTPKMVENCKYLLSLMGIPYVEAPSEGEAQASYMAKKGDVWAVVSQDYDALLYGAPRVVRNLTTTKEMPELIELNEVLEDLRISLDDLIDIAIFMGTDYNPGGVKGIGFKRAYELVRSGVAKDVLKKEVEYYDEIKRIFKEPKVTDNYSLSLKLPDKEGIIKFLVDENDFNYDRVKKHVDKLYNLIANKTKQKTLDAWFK
The procedure: as §1, §2

Setting [1] is: label: 5'-biotin target, 5'-TET probe, hairpin target-INVADER with overlapping probe flap.

B1: INVADER substrate 594-12-1/203-91-1 (structured_DNA)
DNA 1: TTTTTCACGGCAGTTGGTGCGCCTCGGAACGAGGCGCACA
DNA 2: TTTTCAACTGCCGTGA
On to B1, for which the cleavage rate was found to be 0.95 in the data set with Pho3M FEN1 (setting [1]); 0.83 in the data set with Pfu1M FEN1 (setting [1]); 1.1 in the data set with Pho1M FEN1 (setting [1]); 2.2 in the data set with Pfu4M FEN1 (setting [1]); 0.52 with Afu FEN1 (setting [1]); 1.9 with Mja FEN1 (setting [1]).

B2: X-structure 203-81-2/203-91-2 (structured_DNA)
DNA 1: TTTTCAACTGCTTAGAGAATCTAAGCAGTTGGTGCGCCTCGTTAA
DNA 2: AACGAGGCGCACATT
modifications: 3'-NH2 on first strand
Regarding B2, the cleavage rate in the data set with Pho3M FEN1 (label: 5'-TET, X-structure) amounted to 6.6; in the data set with Pfu1M FEN1 (label: 5'-TET, X-structure), 0.85; with Pho1M FEN1 (label: 5'-TET, X-structure), 18; with Pfu4M FEN1 (label: 5'-TET, X-structure) it was 62; with Afu FEN1 (label: 5'-TET, X-structure) it was 0.5; with Mja FEN1 (label: 5'-TET, X-structure), 203.
